Source: patent US20220389085A1 (BIONOXX, published 2022)

T1: protein A56 of the oncolytic virus OTS-412 (vaccinia virus (OTS-412), UniProt P08714 17-315)
T1 construct: also called OTS-412-A56; protein A56 variant
T1 chain: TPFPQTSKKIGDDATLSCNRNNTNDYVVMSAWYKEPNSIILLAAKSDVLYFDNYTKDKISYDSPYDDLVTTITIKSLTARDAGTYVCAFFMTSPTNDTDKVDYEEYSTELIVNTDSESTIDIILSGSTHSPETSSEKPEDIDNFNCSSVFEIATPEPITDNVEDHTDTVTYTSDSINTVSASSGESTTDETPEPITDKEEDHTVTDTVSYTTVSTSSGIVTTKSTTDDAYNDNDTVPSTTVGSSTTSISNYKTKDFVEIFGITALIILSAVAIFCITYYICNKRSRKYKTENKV

B1: LakePharma variant3 (antibody)
VH: QVQLQQSGPELVKPGASMKLSCKASGYSFTGYTMNWVKQSHGKNLEWIGLINPYNGGTSYNQKFKGKATLTVDKSSSTAYMELLSLTSEDSAVYYCARSHYRYDYWYFDVWGAGTTVTVSSAKTTPPSVYPLAPGSAAQTNSMVTLGCLVKGYFPEPVTVTWNSGSLSSGVHTFPAVLQSDLYTLSSSVTVPSSTWPSETVTCNVAHPASSTKVDKKIVPRDCGCKPCICTVPEVSSVFIFPPKPKDVLTITLTPKVTCVVVDISKDDPEVQFSWFVDDVEVHTAQTQPREEQFNSTFRSVSELPIMHQDWLNGKEFKCRVNSAAFPAPIEKTISKTKGRPKAPQVYTIPPPKEQMAKDKVSLTCMITDFFPEDITVEWQWNGQPAENYKNTQPIMDTDGSYFVYSKLNVQKSNWEAGNTFTCSVLHEGLHNHHTEKSLSHSPGK
VL: DVVMTQTPLSLPVSLGDQASISCRSSQSLVHSNGNTYLHWYLQKPGQSPKLLIYKVSNRFSGVPDRFSGSGSGTDFTLKISRVEAEDLGVYFCSQSTHVPPFTFGSGTKLEIKRADAAPTVSIFPPSSEQLTSGGASVVCFLNNFYPKDINVKWKIDGSERQNGVLNSWTDQDSKDSTYSMSSTLTLTKDEYERHNSYTCEATHKTSTSPIVKSFNRNEC
notes: also called LP variant3; LPvariant03
B2: LakePharma variant4 (antibody)
VH: EVQLQQSGPELVKPGASMKLSCKASGYSFTGYTMNWVKQSHGKNLEWIGLINPYNGGTSYNQKFKGKATLTVDKSSSTAYMELLSLTSEDSAVYYCARSHYRYDYWYFDVWGAGTTVTVSSAKTTPPSVYPLAPGSAAQTNSMVTLGCLVKGYFPEPVTVTWNSGSLSSGVHTFPAVLQSDLYTLSSSVTVPSSTWPSETVTCNVAHPASSTKVDKKIVPRDCGCKPCICTVPEVSSVFIFPPKPKDVLTITLTPKVTCVVVDISKDDPEVQFSWFVDDVEVHTAQTQPREEQFNSTFRSVSELPIMHQDWLNGKEFKCRVNSAAFPAPIEKTISKTKGRPKAPQVYTIPPPKEQMAKDKVSLTCMITDFFPEDITVEWQWNGQPAENYKNTQPIMDTDGSYFVYSKLNVQKSNWEAGNTFTCSVLHEGLHNHHTEKSLSHSPGK
VL: DVVMTQTPLSLPVSLGDQASISCRSSQSLVHSNGNTYLHWYLQKPGQSPKLLIYKVSNRFSGVPDRFSGSGSGTDFTLKISRVEAEDLGVYFCSQSTHVPPFTFGSGTKLEIKRADAAPTVSIFPPSSEQLTSGGASVVCFLNNFYPKDINVKWKIDGSERQNGVLNSWTDQDSKDSTYSMSSTLTLTKDEYERHNSYTCEATHKTSTSPIVKSFNRNEC
notes: also called LP variant4; LPvariant04
B3: A56-02B08 (Ab16) (antibody, V domains shown)
VH: QVQLQQSGPGLVKPSQTLSLTCAISGDSVSSNSAAWNWIRQSPSRGLEWLGRTYYRSKWYNDYAVSVKSRITINPDTSKNQFSLQLNSVTAVDTAVYYCAKSYAGPISYYYYGLDVWGQGTTVTVSS
VL: QSALTQPASVSGSPGQSVTISCTGTSSDIGRYNLVSWYQQHPGKAPKLMIYGGSKRPSGVSNRFSGSNSDNTASLTISGLRAEDEADYYCSSYASSSTPYVFGTGTKVTVL

Key:
[1] = molecular target: T1, protein A56 of the oncolytic virus …; test: flow cytometry, PC3 cells treated with OTS-412
[2] = molecular target: T2, protein A56 of the oncolytic virus WOTS-418 (vaccinia virus (WOTS-418, Western …, UniProt Q01218 17-314)); test: flow cytometry, A549 cells treated with WOTS-418
T2 construct: also called WOTS-418-A56; protein A56 variant

[3] = molecular target: T1, protein A56 of the oncolytic virus …; test: flow cytometry, A549 cells treated with OTS-412
[4] = molecular target: T2, protein A56 of the oncolytic virus …; test: flow cytometry, PC3 cells treated with WOTS-418
[5] = molecular target: T1, protein A56 of the oncolytic virus …; test: flow cytometry, MCF7 cells treated with OTS-412
[6] = molecular target: T2, protein A56 of the oncolytic virus …; test: flow cytometry, PC3 cells treated with WOTS-418 (overlay, FIG. 75)
[7] = molecular target: T1, protein A56 of the oncolytic virus …; test: flow cytometry, PC3 cells treated with OTS-412 (overlay, FIG. 74)
[8] = molecular target: T2, protein A56 of the oncolytic virus …; test: flow cytometry, MCF7 cells treated with WOTS-418

| Binder | binding signal (flow cytometry, %) [1] | binding signal (flow cytometry, %) [2] | binding signal (flow cytometry, %) [3] | binding signal (flow cytometry, %) [4] | binding signal (flow cytometry, %) [5] | binding signal (flow cytometry, %) [6] | binding signal (flow cytometry, %) [7] | binding signal (flow cytometry, %) [8] |
| --- | --- | --- | --- | --- | --- | --- | --- | --- |
| B1 | ≥ 90% | ≥ 93% | ≥ 93% | ≥ 90% |  |  |  |  |
| B2 | ≥ 90% | ≥ 93% | ≥ 93% | ≥ 90% |  |  |  |  |
| B3 | ≥ 70% |  |  | ≥ 70% | ≥ 80% | ≥ 60% | ≥ 60% | ≥ 80% |
